These results are taken from PMC10991328, “A distal enhancer guides the negative selection of toxic glycoalkaloids during tomato domestication”.

In the series the target is MYC2-GST (Solanum lycopersicum (MicroTom), UniProt A0A3Q7HRZ6 1-689). The series can be described thus: EMSA; strong binding; 20-40 ng protein; EMSA: 10 mM Tris-HCl pH 7.2, 50 mM KCl, 1 mM DTT, 2.5% glycerol, 0.05% NP-40, 50 ng/uL poly(dI-dC), room temperature, 20 min; pull-down: 10 mM HEPES pH 7.9, 100 mM KCl, 5 mM MgCl2, 10% glycerol, 1 mM DTT, 0.5% NP-40, 4 C overnight. The note with it: protein: recombinant; tags: GST (pGEX-4T-1); chain copies: 2; label: 3'-biotin; blunt. For orientation: Mobility shift assays separate free from complexed probe on a gel.
Sequence of MYC2-GST (A0A3Q7HRZ6 whole entry): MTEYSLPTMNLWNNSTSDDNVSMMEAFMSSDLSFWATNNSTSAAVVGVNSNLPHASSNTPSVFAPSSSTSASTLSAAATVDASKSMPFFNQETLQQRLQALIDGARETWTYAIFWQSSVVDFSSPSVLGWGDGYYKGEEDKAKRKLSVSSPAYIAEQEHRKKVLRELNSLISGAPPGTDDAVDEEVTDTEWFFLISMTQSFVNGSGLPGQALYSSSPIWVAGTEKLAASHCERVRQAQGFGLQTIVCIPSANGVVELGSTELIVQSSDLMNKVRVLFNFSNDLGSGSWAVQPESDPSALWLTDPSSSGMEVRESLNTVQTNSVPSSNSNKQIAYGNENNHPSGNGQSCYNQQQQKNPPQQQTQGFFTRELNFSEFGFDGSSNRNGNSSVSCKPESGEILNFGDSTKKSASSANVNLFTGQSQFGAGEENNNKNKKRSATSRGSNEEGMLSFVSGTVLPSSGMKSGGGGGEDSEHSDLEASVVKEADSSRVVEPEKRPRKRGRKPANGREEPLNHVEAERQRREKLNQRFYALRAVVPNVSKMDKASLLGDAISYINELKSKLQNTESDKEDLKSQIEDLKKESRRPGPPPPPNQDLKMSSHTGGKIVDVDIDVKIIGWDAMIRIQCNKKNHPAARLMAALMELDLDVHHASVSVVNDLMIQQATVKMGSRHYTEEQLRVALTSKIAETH

B1: GE1-1 probe (dsDNA)
DNA 1: ATGTATGTGTCTAATCAAACATCGGTGGCATAATTTTTTTTAGCATCAAA
DNA 2: TTTGATGCTAAAAAAAATTATGCCACCGATGTTTGATTAGACACATACAT
Consider B1, for which the binding result is “binds”.
